{"source": "patent US20200239562A1", "about": "(ANAPTYSBIO, published 2020)", "target": "T1, human IL-33 (human, UniProt O95760 112-270, limits assumed)", "T1 construct": "also called Interleukin-33", "T1 sequence (looked up)": "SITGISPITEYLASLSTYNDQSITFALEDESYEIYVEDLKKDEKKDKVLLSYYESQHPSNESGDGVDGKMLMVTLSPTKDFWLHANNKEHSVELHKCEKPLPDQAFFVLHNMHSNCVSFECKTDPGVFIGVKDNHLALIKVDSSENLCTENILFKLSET", "experiment": "method not stated"}
{"binder": "ANB020 (antibody, V domains shown) VH: QVQLMQSGAEVKKPGASVKVSCKASGYTFTSYWMHWVRQAPGQGLEWMGTIYPRNSNTDYNQKFKARVTMTRDTSTSTVYMELSSLRSEDTAVYYCARPLYYYLTSPPTLFWGQGTLVTVSS VL: DIQLTQSPSFLSASVGDRVTLTCKASQDVGTAVAWTQQKPGKAPKLLIYWASTRHTGVPSRFSGSGSGTEFTLTISSLQPEDFATYYCQQAKTYPFTFGSGTKLEIK", "values": [{"measurement": "Kd", "result": "~1", "unit": "pM"}]}
